US20240317847A1 (Bayer, published 2024)

Tests used:
human IL-11 = target: T1, human IL-11 (human, UniProt P20809 22-199); assay: SPR, antibody captured, IL-11 as analyte
T1 construct: bought from Invigate; also called hIL-11; hIL11
T1 sequence: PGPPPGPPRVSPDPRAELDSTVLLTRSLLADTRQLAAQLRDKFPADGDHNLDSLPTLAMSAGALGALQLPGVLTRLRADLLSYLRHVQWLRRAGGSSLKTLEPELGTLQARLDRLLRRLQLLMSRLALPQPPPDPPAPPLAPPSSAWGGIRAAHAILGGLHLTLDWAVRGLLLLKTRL
Description: (§1) Antibodies were captured via anti-mouse Fc IgGs (“Mouse antibody capture kit, Order No. BR100383, Cytiva) covalently amine coupled to a Series S CM5 sensor chip (Cytiva). The amine coupling was carried out according to the manufacturer's instructions using 1-ethyl-3-(3-dimethylaminopropyl) carbodiimide hydrochloride (EDC), N-hydroxysuccinimide (NHS) and ethanolamine HCl, pH 8.5 (“Amine Coupling Kit” BR-1000-50, Cytiva.). Human IL-11 (Invigate, e.g., lot #C121021-19), and murine IL-11 (Invigate, e.g., lot #C210819-09) were used as analytes. […] Based on that experiment an IL-11 concentration range was chosen to optimally determine kinetics and affinity of anti-IL-11 antibodies in multicycle kinetics mode. The sensor surface was regenerated with glycine pH 1.7 after each antigen injection. Obtained sensorgrams were double referenced (subtraction of reference flow cell signal and buffer injection) and were fitted to a 1:1 Langmuir binding model to derive kinetic data using the Biacore T200 Evaluation software or the Biacore Insight software.
(§2) 42 hits from the IL-11 and […] screening analysis were selected, expressed by transient transfection of mammalian cells and purified as described in Example 15. Antibodies were then tested for human IL-11 and murine IL-11 binding by SPR as described in Example 16.

murine IL-11 = target: T2, murine IL-11 (mouse, UniProt P47873 22-199); assay: SPR, antibody captured, IL-11 as analyte
T2 construct: bought from Invigate; also called mIL-11; mIL11
T2 sequence: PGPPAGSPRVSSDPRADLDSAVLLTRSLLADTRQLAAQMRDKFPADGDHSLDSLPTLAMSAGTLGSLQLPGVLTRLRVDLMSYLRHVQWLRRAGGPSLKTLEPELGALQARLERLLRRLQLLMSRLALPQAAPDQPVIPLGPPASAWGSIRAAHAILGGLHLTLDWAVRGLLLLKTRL
Description: as §1, §2

B1: TPP-26315 (antibody, V domains shown)
VH: EVQLLESGGGLVQPGGSLRLSCAASGFTFSSYGMHWVRQAPGKGLEWVSVISYDGSYKYYADSVKGRFTISRDNSKNTLYLQMNSLRAEDTAVYYCAAGVPDYWGQGTLVTVSS
VL: QSVLTQPPSASGTPGQRVTISCTGSSSNIGAHYDVHWYQQLPGTAPKLLIYSNNERPSGVPDRFSGSKSGTSASLAISGLRSEDEADYYCAAWDDSLNGPVFGGGTKLTVL
notes: constant regions not restated
Work on B1 yielded a Kd (human IL-11) of 14 nM and a Kd (murine IL-11) of 0.95 nM.

B2: TPP-26316 (antibody, V domains shown)
VH: EVQLLESGGGLVQPGGSLRLSCAASGFTFSSYGMHWVRQAPGKGLEWVSVISYDGSYKYYADSVKGRFTISRDNSKNTLYLQMNSLRAEDTAVYYCAAGVPDYWGQGTLVTVSS
VL: QSVLTQPPSASGTPGQRVTISCTGSSSNIGAGYDVHWYQQLPGTAPKLLIYSNNERPSGVPDRFSGSKSGTSASLAISGLRSEDEADYYCAAWDMSLNGPVFGGGTKLTVL
notes: constant regions not restated
Binder B2 has a Kd (human IL-11) of 8.4 nM and a Kd (murine IL-11) of 0.72 nM.

B3: TPP-26317 (antibody, V domains shown)
VH: EVQLLESGGGLVQPGGSLRLSCAASGFTFSSYGMHWVRQAPGKGLEWVSVISYDGSYKYYADSVKGRFTISRDNSKNTLYLQMNSLRAEDTAVYYCAAGVPDYWGQGTLVTVSS
VL: QSVLTQPPSASGTPGQRVTISCTGSSSNIGAEYDVHWYQQLPGTAPKLLIYSNNERPSGVPDRFSGSKSGTSASLAISGLRSEDEADYYCAAWDDSLNGPVFGGGTKLTVL
notes: constant regions not restated
For B3, the Kd (human IL-11) was 8.1 nM and the Kd (murine IL-11) was 0.9 nM.

B4: TPP-26318 (antibody, V domains shown)
VH: EVQLLESGGGLVQPGGSLRLSCAASGFTFSSYGMHWVRQAPGKGLEWVSVISYDGSYKYYADSVKGRFTISRDNSKNTLYLQMNSLRAEDTAVYYCAAGVPDYWGQGTLVTVSS
VL: QSVLTQPPSASGTPGQRVTISCTGSSSNIGAGYFVHWYQQLPGTAPKLLIYSNNERPSGVPDRFSGSKSGTSASLAISGLRSEDEADYYCAAWDDSLNGPVFGGGTKLTVL
notes: constant regions not restated
With B4 the Kd (human IL-11) was 14 nM and the Kd (murine IL-11) was 8.1 nM.

B5: TPP-26319 (antibody, V domains shown)
VH: EVQLLESGGGLVQPGGSLRLSCAASGFTFSSYGMHWVRQAPGKGLEWVSVISYDGSYKYYADSVKGRFTISRDNSKNTLYLQMNSLRAEDTAVYYCAAGVPDYWGQGTLVTVSS
VL: QSVLTQPPSASGTPGQRVTISCTGSSSNIGAGYDVHWYQQLPGTAPKLLIYSNNEKPSGVPDRFSGSKSGTSASLAISGLRSEDEADYYCAAWDDSLNGPVFGGGTKLTVL
notes: constant regions not restated
B5 showed a Kd (human IL-11) of 12 nM and a Kd (murine IL-11) of 1.4 nM.

B6: TPP-26320 (antibody, V domains shown)
VH: EVQLLESGGGLVQPGGSLRLSCAASGFTFSSYGMHWVRQAPGKGLEWVSVISYDGSYKYYADSVKGRFTISRDNSKNTLYLQMNSLRAEDTAVYYCAAGVPDYWGQGTLVTVSS
VL: QSVLTQPPSASGTPGQRVTISCTGSSSNIGAGYDVHWYQQLPGTAPKLLIYSNEERPSGVPDRFSGSKSGTSASLAISGLRSEDEADYYCAAWDDSLNGPVFGGGTKLTVL
notes: constant regions not restated
B6 showed a Kd (human IL-11) of 13 nM and a Kd (murine IL-11) of 0.83 nM.

B7: TPP-26321 (antibody, V domains shown)
VH: EVQLLESGGGLVQPGGSLRLSCAASGFTFSSYGMHWVRQAPGKGLEWVSVISYDGSYKYYADSVKGRFTISRDNSKNTLYLQMNSLRAEDTAVYYCAAGVPDYWGQGTLVTVSS
VL: QSVLTQPPSASGTPGQRVTISCTGSSSNIGAGYDVHWYQQLPGTAPKLLIYSNNERPSGVPDRFSGSKSGTSASLAISGLRSEDEADYYCAAWDLSLNGPVFGGGTKLTVL
notes: constant regions not restated
In the case of B7, the Kd (human IL-11) is reported as 9.3 nM and the Kd (murine IL-11) is reported as 0.94 nM.

B8: TPP-26323 (antibody, V domains shown)
VH: EVQLLESGGGLVQPGGSLRLSCAASGFTFSSYGMHWVRQAPGKGLEWVSVISYDGSYKYYADSVKGRFTISRDNSKNTLYLQMNSLRAEDTAVYYCAAGVPDYWGQGTLVTVSS
VL: QSVLTQPPSASGTPGQRVTISCTGSSSNIGAGYDVHWYQQLPGTAPKLLIYSNNERPSGVPDRFSGSKSGTSASLAISGLRSEDEADYYCAAWDGSLNGPVFGGGTKLTVL
notes: constant regions not restated
B8 was tested, and the Kd (human IL-11) was 10 nM and the Kd (murine IL-11) was 0.58 nM.

B9: TPP-26324 (antibody, V domains shown)
VH: EVQLLESGGGLVQPGGSLRLSCAASGFTFSSYGMHWVRQAPGKGLEWVSVISYDGSYKYYRDSVKGRFTISRDNSKNTLYLQMNSLRAEDTAVYYCAAGVPDYWGQGTLVTVSS
VL: QSVLTQPPSASGTPGQRVTISCTGSSSNIGAGYDVHWYQQLPGTAPKLLIYSNNERPSGVPDRFSGSKSGTSASLAISGLRSEDEADYYCAAWDDSLNGPVFGGGTKLTVL
notes: constant regions not restated
With B9 the Kd (human IL-11) was 13 nM and the Kd (murine IL-11) was 1.2 nM.

B10: TPP-26325 (antibody, V domains shown)
VH: EVQLLESGGGLVQPGGSLRLSCAASGFTFSWYGMHWVRQAPGKGLEWVSVISYDGSYKYYADSVKGRFTISRDNSKNTLYLQMNSLRAEDTAVYYCAAGVPDYWGQGTLVTVSS
VL: QSVLTQPPSASGTPGQRVTISCTGSSSNIGAGYDVHWYQQLPGTAPKLLIYSNNERPSGVPDRFSGSKSGTSASLAISGLRSEDEADYYCAAWDDSLNGPVFGGGTKLTVL
notes: constant regions not restated
In the case of B10, the Kd (human IL-11) is reported as 6.4 nM and the binding result (murine IL-11) is reported as “no binding”.

B11: TPP-26326 (antibody, V domains shown)
VH: EVQLLESGGGLVQPGGSLRLSCAASGFTFSYYGMHWVRQAPGKGLEWVSVISYDGSYKYYADSVKGRFTISRDNSKNTLYLQMNSLRAEDTAVYYCAAGVPDYWGQGTLVTVSS
VL: QSVLTQPPSASGTPGQRVTISCTGSSSNIGAGYDVHWYQQLPGTAPKLLIYSNNERPSGVPDRFSGSKSGTSASLAISGLRSEDEADYYCAAWDDSLNGPVFGGGTKLTVL
notes: constant regions not restated
For B11, the Kd (human IL-11) was 9.3 nM and the Kd (murine IL-11) was 1.2 nM.

B12: TPP-26328 (antibody, V domains shown)
VH: EVQLLESGGGLVQPGGSLRLSCAASGFTFSSYGMHWVRQAPGKGLEWVSVISYDGSYKYYADSVKGRFTISRDNSKNTLYLQMNSLRAEDTAVYYCAATVPDYWGQGTLVTVSS
VL: QSVLTQPPSASGTPGQRVTISCTGSSSNIGAGYDVHWYQQLPGTAPKLLIYSNNERPSGVPDRFSGSKSGTSASLAISGLRSEDEADYYCAAWDDSLNGPVFGGGTKLTVL
notes: constant regions not restated
B12 showed a Kd (human IL-11) of 12 nM and a Kd (murine IL-11) of 1.3 nM.

B13: TPP-26329 (antibody, V domains shown)
VH: EVQLLESGGGLVQPGGSLRLSCAASGFTFSSWGMHWVRQAPGKGLEWVSVISYDGSYKYYADSVKGRFTISRDNSKNTLYLQMNSLRAEDTAVYYCAAGVPDYWGQGTLVTVSS
VL: QSVLTQPPSASGTPGQRVTISCTGSSSNIGAGYDVHWYQQLPGTAPKLLIYSNNERPSGVPDRFSGSKSGTSASLAISGLRSEDEADYYCAAWDDSLNGPVFGGGTKLTVL
notes: constant regions not restated
B13 gave a Kd (human IL-11) of 14 nM and a Kd (murine IL-11) of 0.92 nM.

B14: TPP-26330 (antibody, V domains shown)
VH: EVQLLESGGGLVQPGGSLRLSCAASGFTFSFYGMHWVRQAPGKGLEWVSVISYDGSYKYYADSVKGRFTISRDNSKNTLYLQMNSLRAEDTAVYYCAAGVPDYWGQGTLVTVSS
VL: QSVLTQPPSASGTPGQRVTISCTGSSSNIGAGYDVHWYQQLPGTAPKLLIYSNNERPSGVPDRFSGSKSGTSASLAISGLRSEDEADYYCAAWDDSLNGPVFGGGTKLTVL
notes: constant regions not restated
B14 gave a Kd (human IL-11) of 9.5 nM and a Kd (murine IL-11) of 1.7 nM.

B15: TPP-26331 (antibody, V domains shown)
VH: EVQLLESGGGLVQPGGSLRLSCAASGFTFSSYGGHWVRQAPGKGLEWVSVISYDGSYKYYADSVKGRFTISRDNSKNTLYLQMNSLRAEDTAVYYCAAGVPDYWGQGTLVTVSS
VL: QSVLTQPPSASGTPGQRVTISCTGSSSNIGAGYDVHWYQQLPGTAPKLLIYSNNERPSGVPDRFSGSKSGTSASLAISGLRSEDEADYYCAAWDDSLNGPVFGGGTKLTVL
notes: constant regions not restated
Binder B15 has a Kd (human IL-11) of 15 nM and a Kd (murine IL-11) of 0.95 nM.
